Assay results: patent US20260042827A1, “ANTI-WT1 ANTIGEN-BINDING PROTEINS AND USES THEREOF” (UNIVERSITY HEALTH NETWORK, priority 2022, published 2026)

T1: HLA-DP4 (human), P20036
T1 chain 1: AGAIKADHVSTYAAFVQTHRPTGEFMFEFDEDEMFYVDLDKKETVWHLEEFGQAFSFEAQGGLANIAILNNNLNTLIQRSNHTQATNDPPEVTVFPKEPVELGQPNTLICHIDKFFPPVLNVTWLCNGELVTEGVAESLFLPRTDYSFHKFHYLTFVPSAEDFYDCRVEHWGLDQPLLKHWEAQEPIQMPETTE
T1 chain 2: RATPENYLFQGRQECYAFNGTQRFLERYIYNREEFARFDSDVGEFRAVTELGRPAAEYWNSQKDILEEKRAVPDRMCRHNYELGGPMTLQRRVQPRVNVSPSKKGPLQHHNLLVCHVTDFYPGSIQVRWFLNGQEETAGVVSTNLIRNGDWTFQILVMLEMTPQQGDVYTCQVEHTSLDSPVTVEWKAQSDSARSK


Biological target: T1, HLA-DP4 (human), P20036
Assay: competition
Conditions: modification not given

| Binder | IC50 [mM] |
| --- | --- |
| PGCNARYFKLSHLQMHSRKHT [332A] | 4.74 |
| PGCNKRYFKLSHLQMHSAKHT [345A] | 9.37 |
| PGCNKRYFKLSHLAMHSRKHT [341A] | 8.51 |
| PGCNKAYFKLSHLQMHSRKHT [333A] | 0.3 |
| PGCAKRYFKLSHLQMHSRKHT [331A] | 7.46 |
| PACNKRYFKLSHLQMHSRKHT [329A] | 5.44 |
